Assay results as given in publication PMC12524584, “Structures, Interactions, and Antimicrobial Activity of the Shortest Thanatin Peptide from Anasa tristis” (International Journal of Molecular Sciences, 2025).
Bridges are numbered along the chain shown (N, C = ends). Where no end group is shown, it is not given here.

Target: T1, LptAm of Klebsiella pneumoniae (truncated but functional variant of the LPS transport periplasmic protein … (Klebsiella pneumoniae, UniProt A0A377YZM8 28-159, 15N-labeled))
T1 construct: LptA, periplasmic LPS transport protein of Klebsiella pneumoniae, amino acids 28-159 (LptAm); synthetic gene in pET24a(+); also called 15N-LptAm; source: E. coli BL21, purified (Ni-NTA, size-exclusion chromatography), 15N-labeled in M9 minimal medium
T1 sequence: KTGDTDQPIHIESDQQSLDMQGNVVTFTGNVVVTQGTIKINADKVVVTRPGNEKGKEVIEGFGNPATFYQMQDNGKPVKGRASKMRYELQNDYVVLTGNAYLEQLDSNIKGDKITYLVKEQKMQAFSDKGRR
Experiment: NMR titration; 15N-1H HSQC of 15N-LptAm free and with Ana-thanatin at protein:peptide molar ratios 1:1 and 1:2; 298 K
Conditions: both partners purified

B1: Ana-thanatin (16-residue thanatin from Anasa tristis) (peptide)
peptide: VPIYYCNRKTGKCRRL
modifications: disulfide 6-13 (inferred)
notes: thanatin of the squash bug Anasa tristis, 16 residues, V1-L16; Single disulfide-bonded beta-hairpin peptide; the disulfide would join C6 and C13, the only two Cys; also called Anasa tristis thanatin; Ana-thanatin peptide; source: synthetic peptide (chemically synthesized by GenScript)
For B1, the “stoichiometry N” value was 1.
